Data as given in US20160031999A1 (CSL, published 2016).

T1: polypeptide of SEQ ID NO: 85 (amino acids 23 to 318 of human IL-11Rα, serine at position 248, 8×HIS tag) (human, UniProt Q14626 23-318)
T1 construct: also called WT D1/2; truncated hIL-11R
T1 sequence: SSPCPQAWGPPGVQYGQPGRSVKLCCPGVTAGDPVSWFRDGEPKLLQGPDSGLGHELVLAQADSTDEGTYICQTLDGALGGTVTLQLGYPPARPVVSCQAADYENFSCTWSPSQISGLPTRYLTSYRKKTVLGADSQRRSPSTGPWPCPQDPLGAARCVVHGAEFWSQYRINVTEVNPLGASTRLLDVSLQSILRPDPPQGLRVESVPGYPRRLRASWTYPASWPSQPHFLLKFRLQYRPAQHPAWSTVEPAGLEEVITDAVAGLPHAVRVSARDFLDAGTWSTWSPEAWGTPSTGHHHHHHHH

T2: L101S mutant of soluble human IL-11Rα (SEQ ID NO: 98) (human, UniProt Q14626 23-318)
T2 sequence: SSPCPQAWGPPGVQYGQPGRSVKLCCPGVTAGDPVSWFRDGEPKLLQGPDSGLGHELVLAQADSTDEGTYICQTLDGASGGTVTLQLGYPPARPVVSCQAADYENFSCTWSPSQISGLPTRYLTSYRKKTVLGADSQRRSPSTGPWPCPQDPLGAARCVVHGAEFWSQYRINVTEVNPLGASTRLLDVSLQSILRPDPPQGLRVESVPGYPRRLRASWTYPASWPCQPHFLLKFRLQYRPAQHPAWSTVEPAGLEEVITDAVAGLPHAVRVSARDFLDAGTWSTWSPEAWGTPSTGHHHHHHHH

T3: K66R mutant of soluble human IL-11Rα (SEQ ID NO: 96) (human, UniProt Q14626 23-318)
T3 construct: also called K44R
T3 sequence: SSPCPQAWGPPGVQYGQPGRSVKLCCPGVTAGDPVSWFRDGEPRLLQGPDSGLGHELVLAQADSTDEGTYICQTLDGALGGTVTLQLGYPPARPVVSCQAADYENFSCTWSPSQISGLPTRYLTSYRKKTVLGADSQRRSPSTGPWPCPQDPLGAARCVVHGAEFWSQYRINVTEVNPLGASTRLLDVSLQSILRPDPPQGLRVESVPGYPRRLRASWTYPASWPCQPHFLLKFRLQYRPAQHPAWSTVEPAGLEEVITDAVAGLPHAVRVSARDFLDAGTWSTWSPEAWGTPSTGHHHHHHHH

T4: P65S mutant of soluble human IL-11Rα (SEQ ID NO: 97) (human, UniProt Q14626 23-318)
T4 sequence: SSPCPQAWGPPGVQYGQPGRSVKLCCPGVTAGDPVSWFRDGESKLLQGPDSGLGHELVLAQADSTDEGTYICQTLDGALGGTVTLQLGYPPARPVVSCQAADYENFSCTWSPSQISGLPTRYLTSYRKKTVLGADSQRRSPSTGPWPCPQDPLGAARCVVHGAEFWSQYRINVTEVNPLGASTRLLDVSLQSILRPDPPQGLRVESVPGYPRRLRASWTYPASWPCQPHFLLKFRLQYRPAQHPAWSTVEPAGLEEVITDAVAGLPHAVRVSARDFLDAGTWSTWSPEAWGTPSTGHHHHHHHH

T5: A178S mutant of soluble human IL-11Rα (SEQ ID NO: 99) (human, UniProt Q14626 23-318)
T5 sequence: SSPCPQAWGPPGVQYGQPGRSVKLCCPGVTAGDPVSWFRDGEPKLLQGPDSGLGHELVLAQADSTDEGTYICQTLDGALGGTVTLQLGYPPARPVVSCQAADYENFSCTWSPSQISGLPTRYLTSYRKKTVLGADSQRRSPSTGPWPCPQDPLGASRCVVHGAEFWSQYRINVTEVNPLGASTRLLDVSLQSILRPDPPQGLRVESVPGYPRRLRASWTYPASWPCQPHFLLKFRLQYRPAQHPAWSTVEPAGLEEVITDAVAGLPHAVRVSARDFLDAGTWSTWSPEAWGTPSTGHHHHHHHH

T6: polypeptide of SEQ ID NO: 3 (amino acids 23 to 363 of human IL-11Rα, serine at position 248, 8×HIS tag) (human, UniProt Q14626 23-363)
T6 construct: also called WT F/L
T6 sequence: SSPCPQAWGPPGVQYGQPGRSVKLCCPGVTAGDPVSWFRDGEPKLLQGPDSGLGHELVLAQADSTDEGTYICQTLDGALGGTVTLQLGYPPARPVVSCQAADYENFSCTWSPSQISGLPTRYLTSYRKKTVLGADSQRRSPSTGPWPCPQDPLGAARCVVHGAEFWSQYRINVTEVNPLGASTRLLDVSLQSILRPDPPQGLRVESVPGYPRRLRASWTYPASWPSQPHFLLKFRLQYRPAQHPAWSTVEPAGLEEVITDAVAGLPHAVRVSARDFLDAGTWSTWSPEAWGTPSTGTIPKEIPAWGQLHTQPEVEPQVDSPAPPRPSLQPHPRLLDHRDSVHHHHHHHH


What was measured:
[1] = biological target: T1, polypeptide of SEQ ID NO: 85 (amino …); assay: Biacore, antibody captured on anti-human IgG Fc, receptor injected; mean ± SE
Description: (§1) Various point mutants of soluble forms of IL-11R were produced in which amino acids from mIL-11 were introduced into a soluble form of hIL-11 (SEQ ID NO: 85) (see Table 5 for positions of mutations relative to SEQ ID NO: 1 and for reference to the SEQ ID NO: of each polypeptide) and the binding of antibodies to those polypeptides or to polypeptides of SEQ ID NO: 3 or SEQ ID NO: 85 was determined using Biacore analysis or FACS.
(§2) Anti human IgG Fc specific antibody was chemically immobilized on a CM5 chip to ˜9000 RU. Antibodies were captured at about 0.3-1 μg/ml for 120 seconds on 2 spots in each flow cell. Adjacent spots consisting of only anti human IgG were used as a reference. IL-11 receptors were injected over the captured antibodies and reference spots at 40, 10, 5 and 2.5 nM in duplicate. Blank injections of buffer only were also performed in duplicate. Injection was performed for 3 minutes and dissociation monitored for a further 5 minutes.

[2] = biological target: T2, L101S mutant of soluble human IL-11Rα …; assay: Biacore, antibody captured on anti-human IgG Fc, receptor injected; mean ± SE, N = 4
Description: as §1, §2

[3] = biological target: T3, K66R mutant of soluble human IL-11Rα …; assay: as above
Description: as §1, §2

[4] = biological target: T4, P65S mutant of soluble human IL-11Rα …; assay: as above
Description: as §1, §2

[5] = biological target: T5, A178S mutant of soluble human IL-11Rα …; assay: as above
Description: as §1, §2

[6] = biological target: T6, polypeptide of SEQ ID NO: 3 (amino …); assay: Biacore, antibody captured on anti-human IgG Fc, receptor injected; mean ± SE, N = 3
Description: as §1, §2

Kd [1] [nM]	Kd [2] [nM]	Kd [3] [nM]	Kd [4] [nM]	Kd [5] [nM]	Kd [6] [nM]	Binder
2.78	2.98	5.6	2.71	2.63	4	antibody 8E4 (antibody, human IgG4 S228P, lambda, V domains shown) VH: EVQLLESGGGLVQPGGSLRLSCAASGFTFSWYFMGWVRQAPGKGLEWVSYIYPSGGSTGYADSVKGRFTISRDNSKNTLYLQMHSLRAEDTAVYYCARDEGYCSSTSCYFDAFDIWGQGTMVTVSS VL: QSALTQPPSASGSPGQSVAISCTGTSSDVGGYNFVSWYQQHPGKAPKLLIYEVTKRPSGVPDRFSGSKAGNTASLTVSGLQAEDEADYYCSSYGGSNNAGVFGTGTKVTVLG
0.58	0.7	1.3	0.67	0.6	1	antibody 8D10 (antibody, human IgG4 S228P, kappa, V domains shown) VH: EVQLLESGGGLVQPGGSLRLSCAASGFTFSRYMMGWVRQAPGKGLEWVSSIVPSGGITIYADSVKGRFTISRDNSKNTLYLQMNSLRAEDTAVYYCARDHMGIVATDWGQGTLVTVSS VL: DIQMTQSPSSLSASVGDRVTITCQASQDITNYLNWYLHKPGKAPKLLIYDASNLQTGVPSRFSGSGSGTDFTFTITSLQPEDFGTYYCQQYDTLHPSFGPGTTVDIKR
